The values below are quoted from earlier work in article PMC3000440.

Some targets named below: EGFR (Homo sapiens) (UniProt P00533); Met (Homo sapiens) (UniProt P08581); IGF-I (Homo sapiens) (UniProt P05019); IGF-IR (Homo sapiens) (UniProt P08069).
UniProt P05019, sequence (P05019 49-118): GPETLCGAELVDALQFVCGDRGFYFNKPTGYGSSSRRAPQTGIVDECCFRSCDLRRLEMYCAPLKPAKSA
UniProt P08069, sequence (P08069 31-736, chain 1 of 2): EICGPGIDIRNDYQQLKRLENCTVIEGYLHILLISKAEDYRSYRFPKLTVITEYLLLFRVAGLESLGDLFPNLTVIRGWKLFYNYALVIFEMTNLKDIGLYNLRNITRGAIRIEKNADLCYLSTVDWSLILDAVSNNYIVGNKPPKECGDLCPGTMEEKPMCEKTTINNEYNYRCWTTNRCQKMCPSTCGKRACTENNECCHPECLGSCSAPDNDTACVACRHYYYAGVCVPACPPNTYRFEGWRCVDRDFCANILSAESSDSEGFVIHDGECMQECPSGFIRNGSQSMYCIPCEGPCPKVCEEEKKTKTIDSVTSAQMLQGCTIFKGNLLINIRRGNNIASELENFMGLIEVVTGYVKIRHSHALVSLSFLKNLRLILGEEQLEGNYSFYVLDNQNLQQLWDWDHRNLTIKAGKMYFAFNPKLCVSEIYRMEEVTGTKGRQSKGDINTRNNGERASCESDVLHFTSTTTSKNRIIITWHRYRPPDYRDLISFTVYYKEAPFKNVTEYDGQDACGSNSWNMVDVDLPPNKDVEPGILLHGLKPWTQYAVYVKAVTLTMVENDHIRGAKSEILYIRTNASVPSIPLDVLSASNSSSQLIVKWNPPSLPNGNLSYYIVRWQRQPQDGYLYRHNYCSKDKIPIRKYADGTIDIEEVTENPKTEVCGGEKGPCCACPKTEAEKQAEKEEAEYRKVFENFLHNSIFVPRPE
UniProt P08069, sequence (P08069 741-935, chain 2 of 2): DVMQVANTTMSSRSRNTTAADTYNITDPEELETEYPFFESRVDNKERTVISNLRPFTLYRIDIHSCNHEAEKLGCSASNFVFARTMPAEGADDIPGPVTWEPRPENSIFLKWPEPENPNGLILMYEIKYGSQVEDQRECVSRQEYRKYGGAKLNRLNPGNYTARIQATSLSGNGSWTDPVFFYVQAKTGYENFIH
UniProt P08581, sequence (P08581 25-932): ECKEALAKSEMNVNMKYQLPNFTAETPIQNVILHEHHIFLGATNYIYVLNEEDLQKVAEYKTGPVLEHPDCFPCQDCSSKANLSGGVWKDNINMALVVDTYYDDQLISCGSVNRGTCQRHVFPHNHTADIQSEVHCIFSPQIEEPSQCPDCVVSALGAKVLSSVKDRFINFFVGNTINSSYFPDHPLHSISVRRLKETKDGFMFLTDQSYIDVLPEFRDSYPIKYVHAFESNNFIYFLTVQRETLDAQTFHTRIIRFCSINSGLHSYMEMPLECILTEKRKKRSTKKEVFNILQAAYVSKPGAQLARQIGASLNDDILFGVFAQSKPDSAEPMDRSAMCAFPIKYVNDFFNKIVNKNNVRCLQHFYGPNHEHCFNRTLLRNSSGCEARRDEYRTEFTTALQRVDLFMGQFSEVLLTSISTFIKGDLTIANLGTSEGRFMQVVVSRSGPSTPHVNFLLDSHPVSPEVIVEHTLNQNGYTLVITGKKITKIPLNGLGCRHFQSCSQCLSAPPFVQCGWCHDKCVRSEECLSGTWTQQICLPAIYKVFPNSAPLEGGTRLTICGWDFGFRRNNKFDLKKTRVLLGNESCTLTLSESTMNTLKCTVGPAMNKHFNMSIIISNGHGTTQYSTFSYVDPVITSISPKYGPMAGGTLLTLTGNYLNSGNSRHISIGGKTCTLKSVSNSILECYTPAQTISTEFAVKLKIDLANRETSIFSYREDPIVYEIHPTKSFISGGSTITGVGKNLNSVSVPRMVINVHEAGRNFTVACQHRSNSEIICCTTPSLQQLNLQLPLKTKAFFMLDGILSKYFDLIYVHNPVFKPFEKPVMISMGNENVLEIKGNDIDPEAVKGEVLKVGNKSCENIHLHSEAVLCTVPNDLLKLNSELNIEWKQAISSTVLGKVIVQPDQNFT

For the substance decorin (from UniProt P07585), the Kd in the data set with EGFR (Homo sapiens) is 87 nM; in the data set with Met (Homo sapiens), 1.5 nM; with IGF-I (Homo sapiens), 18 nM; with IGF-IR (Homo sapiens), 1.5 nM.
